Results taken from patent US20100150906A1 (AC IMMUNE S A, published 2010).
Residue numbers refer to the chain shown, from its start. Values belong to the binder of their own block, whether it stands above or below them.

Columns and labels:
[1] = target: T1, amyloid beta 1-42 monomers (UniProt P05067 672-713); assay: SPR (BIACORE), Aβ1-42 monomers immobilized on CM5 chip, antibody 0.05-1.0 µM
T1 construct: domain: amyloid beta 1-42; also called Aβ1-42 monomers; amyloid monomers
Description: (§1) BIACORE® technology utilizes changes in the refractive index at the surface layer upon binding of the antibody to the antigen immobilized on the layer. Binding is detected by surface plasmon resonance (SPR) of laser light refracting from the surface. Analysis of the signal kinetics on rate and off rate allows the discrimination between non-specific and specific interaction. The concentration of antibody used was in the range of 0.05 μM to 1.0 μM.

[2] = target: T2, amyloid beta 1-42 fibers (UniProt P05067 672-713); assay: SPR (BIACORE), Aβ1-42 fibers immobilized on CM5 chip, antibody 0.05-1.0 µM
T2 construct: domain: amyloid beta 1-42; Many copies per fiber; also called Aβ1-42 fibers; fibrillar Aβ1-42
T2 sequence (P05067 672-713 limits assumed): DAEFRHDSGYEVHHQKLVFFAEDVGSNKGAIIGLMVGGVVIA
Description: as §1

[3] = target: T3, Amyloid Beta (antigen of the Amyloid Beta ELISA) (UniProt P05067 672-713, limits assumed); assay: Amyloid Beta ELISA, conditioned medium from transient transfection
T3 sequence (P05067 672-713 limits assumed): as above

[4] = target: T3, Amyloid Beta (antigen of the Amyloid …); assay: Amyloid Beta ELISA, purified antibodies

T1 sequence (P05067 672-713 limits assumed): as above

Kd [1]: 20 nM | koff [1]: 0.00095 s⁻¹ | kon [1]: 47000 M⁻¹ s⁻¹ | Kd [2]: 6.5 nM | koff [2]: 0.00033 s⁻¹ | kon [2]: 51000 M⁻¹ s⁻¹
B1: chimeric antibody C2 ChVH AF/ChVK (antibody, human IgG4 S228P, kappa, V domains shown)
VH: EVQLVESGGGLVQPGGSLKLSCAASGFTFSSYGMSWVRQTPDKRLELVASINSNGGSTYYPDSVKGRFTISRDNAKNTLYLQMSSLKSEDTAMYYCASGDYWGQGSTLTVSS
VL: DVVMTQTPLSLPVSLGDQASISCRSSQSLVYSNGDTYLHWYLQKPGQSPKLLIYKVSNRFSGVPDRFSGSGSGTDFTLKISRVEAEDLGVYFCSQSTHVPWTFGGGTKLEIKR
notes: also called C2 VH AF/C2 VK chimeric antibody; chimeric AF

binding result [3]: no binding
B2: C2 HuVH AF version 3 combined with the chimeric C2 kappa chain (antibody, V domains shown)
VH: EVQLVESGGGLVQPGGSLRLSCAASGFTFSSYGMSWVRQAPGKGLELVASINSNGGSTYYPDSVKGRFTISRDNAKNSLYLQMNSLRAEDTAVYYCARGDYWGQGTTVTVSS
VL: DVVMTQTPLSLPVSLGDQASISCRSSQSLVYSNGDTYLHWYLQKPGQSPKLLIYKVSNRFSGVPDRFSGSGSGTDFTLKISRVEAEDLGVYFCSQSTHVPWTFGGGTKLEIK
notes: Transient expression in HEK293; also called C2HuVHAF3/ChVK

fold reduction of binding activity against chimeric control antibody C2 ChVHAF/ChVK [4]: ~2 fold
B3: humanized antibody C2 HuVH2/HuVK3 (antibody, human IgG4 S228P, kappa, V domains shown)
VH: B2 VH with L47W, R98S
VL: B1 VL with V2I, T7S, S14T, L15P, D17E, Q18P, L88V, F92Y, G105Q, L109V
notes: also called C2HuVHAF2 with C2HuVK3

Kd [1]: 19 nM | koff [1]: 0.00095 s⁻¹ | kon [1]: 50000 M⁻¹ s⁻¹ | Kd [2]: 4.7 nM | koff [2]: 0.00023 s⁻¹ | kon [2]: 49000 M⁻¹ s⁻¹
B4: humanized antibody C2HuVH4/HuVK1 (antibody, human IgG4 S228P, kappa, V domains shown)
VH: B2 VH with R98S
VL: DIVMTQSPLSLPVTPGEPASISCRSSQSLVYSNGDTYLHWYLQKPGQSPQLLIYKVSNRFSGVPDRFSGSGSGTDFTLKISRVEAEDVGVYYCSQSTHVPWTFGQGTKVEIKR
notes: also called H4K1; humanized H4K1
